We go through two molecules from patent publication US20030119733A1, “Compositions and methods for inhibiting hepatocyte invasion by malarial sporozoites” (New York University, priority 1992, published 2003).

Assay [1] relates to hepatocyte microvilli in the Space of Disse. The experiment in a line: Electron immunomicroscopy of liver sections. In kind it is binding, rat. The following applies: MAb 2A10 and gold conjugate. As to the method:
Rat or mouse liver tissue or hepatocyte subcellular fractions from Example 2 were fixed in PBS containing 1% glutaraldehyde (grade 1, Sigma, St. Louis, Mo.) and 4% paraformaldehyde (Kodak, Rochester, N.Y.), dehydrated in ethanol, and embedded in LR White (Polysciences, Warrington, Wash.). (Frevert et al., Infect. and Immun. 60:2349-2360, June 1992.) Normal human liver was embedded in Lowicryl K4M (Ted Pella, Redding, Calif.). Ultrathin sections were labelled by incubating them sequentially with 10-50 μg/ml CS27IVC, CSFZ (Cys), Falc-2, or Falc-1 for 30 min.; 15 μg/ml MAb 2A10 for 30 min.; protein A-gold 15 nm (PAG15, 1:30; Amersham, Arlington, Ill.) or goat anti-mouse IgG gold 10 nm (GAM10, 1:30; Amersham) for 30 min. Control specimens were incubated in the absence of CS and only with the gold conjugates. Photographs were taken with a Philips EM 301 electron microscope.
To identify the hepatocyte structures interacting with the CS, glutaraldehyde-fixed and LR White-embedded thin sections of rat liver were incubated with the recombinant CS polypeptide CS27IVC, mAb 2A10 and goat anti-mouse IgG-gold and analyzed by immunoelectron microscopy. Human liver tissue embedded in K4M was also labelled with CS27IVC followed by MAb 2A10 and protein A-gold.

Assay [2] deals with heparan sulfate proteoglycans (HSPG). As to the kind of experiment: CS/proteoglycan co-immunoprecipitation. It is filed as binding, human. Particulars: for co-immunoprecipitation of 35SO4-labeled sulfated molecules: lysates of rat liver, HepG2 cells, kidney, others 64 μg/ml; for total sulfate-labeled proteoglycans precipitated: trypsin-released proteoglycan, equivalent concentrations of Region II+. Here is the method:
All extracts and supernatants were first precleared with normal rabbit serum and Staph A cells. Then 32 μg/ml of CSFZ(Cys) or 64 μg/ml of CS27IVC, Falc-2 or Falc-1 were added for 30 minutes, followed by 10.8 μg/ml mAb 2A10 for 30 minutes, and 1% Staph A cells (final concentrations). The suspensions were shaken for 1 to 5 hours at 4° C. The Staph A cells were washed 3 times with the lysis buffer A, 2 times with lysis buffer B (10 mM Tris-HCl, pH 7.2, containing 100 mM NaCl and 0.5% NP40), 1 time with 50 mM Tris-HCl, ph 7.2, and were processed in this buffer for electrophoresis under reducing and non-reducing conditions.
Extracts of cells metabolically labeled with ^35SO4 were incubated for 30 minutes at 4° C. with 32 μg/ml of recombinant CSFZ(Cys) or 64 μg/ml Falc-1, and were immunoprecipitated with mAb 2A10 and Staph A cells. […] Immunoprecipitation with Falc-1 was negative. The SDS-PAGE patterns of the total lysate of HepG2 cells, and of the molecules co-immunoprecipitated with CSFZ(Cys) resembled the corresponding liver SDS-PAGE patterns. In kidney lysates, CSFZ(Cys) selectively immunoprecipitated a band of slightly lower molecular weight than the total kidney sulfated molecules.
Sub-confluent HepG2 cells were incubated with various concentrations of trypsin for 5 minutes at 4° C. […] Independently of the trypsin concentration, about 80% of the released HSPG was co-immunoprecipitated by 32 μg/ml CSFZ(Cys) and 10.8 μg/ml mAb 2A10. Under the same conditions, Falc-1 was negative.
^35SO4-labeled trypsin-released proteoglycan (total supernatant) was precipitated by CSFZ(Cys) (32 μg/ml), Falc-2 (64 μg/ml), CS27IVC (64 μg/ml) and Falc-1 (64 μg/ml). The labeled molecules were incubated with CSFZ(Cys), CS27IVC, and Falc-2 at equivalent concentrations of Region II+, and co-immunoprecipitated with the mAb 2A10. CSFZ(Cys), lacking most of the repeat region, precipitated up to 86% of the total sulfate-labeled proteoglycans (see FIG. 14), while CS27IVC and Falc-2 precipitated only 18% and 6% of the counts, respectively. Falc-1, which lacks Region II+, was negative.
Subconfluent sulfate-labeled HepG2 cells were incubated with 20 μg/ml trypsin for 5 minutes at 4° C., and the supernatants were loaded onto an anion exchange chromatography Pharmacia mono-Q column. These were eluted with a 0 to 2 M NaCl gradient in the presence of 7 M urea. […] Protein was not detectable in the labeled peaks. One ml fractions were collected and counted.

Assay [3] can be described thus: Solid phase binding assay, sulfatide. The following applies: lipid dried into microtiter wells. Here is the method:
(§1) Solid phase binding assays: Thirty μl of lipids or steroids dissolved in methanol (20-250 μg/ml) were dried into wells of microassay plates (Cat.# 3911—Falcon—Oxnard, Calif.). The plates were then blocked with 1% BSA/PBS pH 7.4 (BSA/PBS) for 30 minutes. Wells were incubated with recombinant protein (or with parasite extract) in PBS/BSA for 1 hour, washed 3 times with BSA/PBS, incubated for 1 hour with monoclonal antibodies 2F2 or 2A10 in BSA/PBS, washed 3 times, and then incubated with (10^5 cpm/well) ^125I protein A (Amersham Corp., Arlington Hts., Ill.). In the case of the P. berghei CS protein, wells were incubated with ^125I labelled mAb 3D11. Wells were washed again and the bound radioactive protein was counted in an LKB gamma-counter (model #1260, Pharmacia, Inc., Gaithersburg, Md.). For inhibition assays, the recombinant proteins were mixed with dilutions of the various polymers in BSA/PBS, the mixture was loaded into the wells of the microtiter plates, and the binding assay performed as above. See also, Roberts, et al. J. Biol. Chem. 260:9405-9411, 1985.
(§2) 1.4 nmol of sulfatide (open squares), cholesterol-3-sulfate (closed triangles), galactocerebroside I (closed circles), galactocerebroside II (open circles) and cholesterol (open triangles) were evaporated into microtiter wells and then incubated with serial dilutions of Vivax-2. […]

Assay [4] is described as follows: Solid phase binding assay, cholesterol-3-sulfate. Particulars: steroid dried into microtiter wells. Here is the method: as §1, §2

B1: Falciparum-2: fragment of P. falciparum CS protein with repeats and Region II+ (residues 43-391) (protein)
chain: AGTNLYNELEMNYYGKQENWYSLKKNSRSLGENDDGNNNNGDNGREGKDEDKRDGNNEDNEKLRKPKHKKLKQPGDGNPDPNANPNVDPNANPNVDPNANPNVDPNANPNANPNANPNANPNANPNANPNANPNANPNANPNANPNANPNANPNANPNANPNANPNVDPNANPNANPNANPNANPNANPNANPNANPNANPNANPNANPNANPNANPNANPNANPNANPNANPNANPNANPNANPNKNNQGNGQGHNMPNDPNRNVDENANANNAVKNNNNEEPSDKHIEQYLKKIKNSISTEWSPCSVTCGNGIQVRIKPGSANKPKDELDYENDIEKKICKMEKCSS
Take B1: the “gold labelling of liver sections” value in assay [1] is on record as “essentially the same results but with lower staining intensity”. For the same molecule, in assay [2] (CSFZ(Cys) 32 μg/ml), the “co-immunoprecipitation of 35SO4-labeled sulfated molecules” value was “less efficient”. Further, in assay [2], the “total sulfate-labeled proteoglycans precipitated” value was 6%. Moreover, in assay [3], the binding to sulfatide result was “specifically bound sulfatide”. Moreover, the “binding to cholesterol-3-sulfate” value in assay [4] is on record as “bind”.

B2: Falciparum-1: Same as Falciparum-2 minus most of Region II+ (P. falciparum residues 43-348) (protein)
chain: AGTNLYNELEMNYYGKQENWYSLKKNSRSLGENDDGNNNNGDNGREGKDEDKRDGNNEDNEKLRKPKHKKLKQPGDGNPDPNANPNVDPNANPNVDPNANPNVDPNANPNANPNANPNANPNANPNANPNANPNANPNANPNANPNANPNANPNANPNANPNANPNVDPNANPNANPNANPNANPNANPNANPNANPNANPNANPNANPNANPNANPNANPNANPNANPNANPNANPNANPNANPNKNNQGNGQGHNMPNDPNRNVDENANANNAVKNNNNEEPSDKHIEQYLKKIKNSISTEWSP
Take B2: the “gold labelling of liver sections” value in assay [1] is reported as “negative”. Besides, in assay [2] (CSFZ(Cys) 32 μg/ml, listed as Falc-1), the “co-immunoprecipitation of 35SO4-labeled sulfated molecules” value is “Negative results”. In addition, the “released HSPG co-immunoprecipitated” value in assay [2] (trypsin-released from HepG2 cells, CSFZ(Cys) 32 μg/ml, mAb 2A10 10.8 μg/ml) is “negative”. The “total sulfate-labeled proteoglycans precipitated” value in assay [2] is on record as “negative”. In assay [3], the binding to sulfatide result is on record as “did not bind”. Besides, the “binding to cholesterol-3-sulfate” value in assay [4] is listed as “did not bind”.
